# Laboratory results reported in publication PMC4383033, “Architecture of the ring formed by the tubulin homologue FtsZ in bacterial cell division” (eLife, 2014).
# B1: Thermotoga maritima FtsA (natural protein, UniProt Q9WZU0 1-419, looked up)
# chain: MIDLSKTVFYTSIDIGSRYIKGLVLGKRDQEWEALAFSSVKSRGLDEGEIKDAIAFKESVNTLLKELEEQLQKSLRSDFVISFSSVSFEREDTVIERDFGEEKRSITLDILSEMQSEALEKLKENGKTPLHIFSKRYLLDDERIVFNPLDMKASKIAIEYTSIVVPLKVYEMFYNFLQDTVKSPFQLKSSLVSTAEGVLTTPEKDRGVVVVNLGYNFTGLIAYKNGVPIKISYVPVGMKHVIKDVSAVLDTSFEESERLIITHGNAVYNDLKEEEIQYRGLDGNTIKTTTAKKLSVIIHARLREIMSKSKKFFREVEAKIVEEGEIGIPGGVVLTGGGAKIPRINELATEVFKSPVRTGCYANSDRPSIINADEVANDPSFAAAFGNVFAVSENPYEETPVKSENPLKKIFRLFKELME
# notes: FtsA of Thermotoga maritima; 'completely unmodified'; the C-terminal tail (amphipathic helix) was verified by ESMS to be intact after purification; It says 'completely unmodified' with intact C-terminal tails; also called TmFtsA; source: purified as described previously (Szwedziak et al., 2012)
# B2: Thermotoga maritima FtsZ (natural protein, UniProt O08398 1-351, looked up)
# chain: MGFDLDVEKKKENRNIPQANNLKIKVIGVGGAGNNAINRMIEIGIHGVEFVAVNTDLQVLEASNADVKIQIGENITRGLGAGGRPEIGEQAALESEEKIREVLQDTHMVFITAGFGGGTGTGASPVIAKIAKEMGILTVAIVTTPFYFEGPERLKKAIEGLKKLRKHVDTLIKISNNKLMEELPRDVKIKDAFLKADETLHQGVKGISELITKRGYINLDFADIESVMKDAGAAILGIGVGKGEHRAREAAKKAMESKLIEHPVENASSIVFNITAPSNIRMEEVHEAAMIIRQNSSEDADVKFGLIFDDEVPDDEIRVIFIATRFPDEDKILFPEGDIPAIYRYGLEGLL
# notes: FtsZ of Thermotoga maritima; 'completely unmodified'; the C-terminal tail was verified by ESMS to be intact after purification; It says 'completely unmodified' with intact C-terminal tails; also called TmFtsZ; source: purified as described previously (Szwedziak et al., 2012)
# Tests used:
# [1] = target: the molecule itself; experiment: electron cryomicroscopy and cryotomography of liposomes; TmFtsZ (30 uM) and TmFtsA (10 uM) encapsulated in liposomes of E. coli total lipid extract by dilution of CHAPS; 0.5 mM MgGTP, MgGMPCPP or no nucleotide; TEN100 7.5 buffer; room temperature
# Thermotoga maritima FtsA = target: B1; experiment: transmission electron cryomicroscopy of liposomes; proteins on the outside of liposomes of E. coli total lipid extract; TmFtsA 20 uM, TmFtsZ 60 uM or both; 50 mM Tris/HCl, 100 mM NaCl, 1 mM EDTA, 1 mM NaN3, pH 7.5; room temperature; settings: both partners purified
Binder,binding result [1],binding result (Thermotoga maritima FtsA)
B1,binds,–
B2,binds,binds
